{"source": "patent US7396816B2", "about": "“Low-molecular weight peptides inhibiting ion channel activity” (Pharmadesign, Inc., priority 2003, dated 2008)", "key": {"[1]": {"target": "T1, Ca^2+ dependant BigK channel derived from heart muscle (myocardial SA channel) (Gallus gallus, UniProt Q8AYS8)", "T1 construct": "expressed in transfected cells; host or cells: CHO cells force-expressing the channel cDNA, or the endogenous channel of chicken ventricular muscle", "T1 sequence (Q8AYS8 1-1195 isoform Q8AYS8-3)": "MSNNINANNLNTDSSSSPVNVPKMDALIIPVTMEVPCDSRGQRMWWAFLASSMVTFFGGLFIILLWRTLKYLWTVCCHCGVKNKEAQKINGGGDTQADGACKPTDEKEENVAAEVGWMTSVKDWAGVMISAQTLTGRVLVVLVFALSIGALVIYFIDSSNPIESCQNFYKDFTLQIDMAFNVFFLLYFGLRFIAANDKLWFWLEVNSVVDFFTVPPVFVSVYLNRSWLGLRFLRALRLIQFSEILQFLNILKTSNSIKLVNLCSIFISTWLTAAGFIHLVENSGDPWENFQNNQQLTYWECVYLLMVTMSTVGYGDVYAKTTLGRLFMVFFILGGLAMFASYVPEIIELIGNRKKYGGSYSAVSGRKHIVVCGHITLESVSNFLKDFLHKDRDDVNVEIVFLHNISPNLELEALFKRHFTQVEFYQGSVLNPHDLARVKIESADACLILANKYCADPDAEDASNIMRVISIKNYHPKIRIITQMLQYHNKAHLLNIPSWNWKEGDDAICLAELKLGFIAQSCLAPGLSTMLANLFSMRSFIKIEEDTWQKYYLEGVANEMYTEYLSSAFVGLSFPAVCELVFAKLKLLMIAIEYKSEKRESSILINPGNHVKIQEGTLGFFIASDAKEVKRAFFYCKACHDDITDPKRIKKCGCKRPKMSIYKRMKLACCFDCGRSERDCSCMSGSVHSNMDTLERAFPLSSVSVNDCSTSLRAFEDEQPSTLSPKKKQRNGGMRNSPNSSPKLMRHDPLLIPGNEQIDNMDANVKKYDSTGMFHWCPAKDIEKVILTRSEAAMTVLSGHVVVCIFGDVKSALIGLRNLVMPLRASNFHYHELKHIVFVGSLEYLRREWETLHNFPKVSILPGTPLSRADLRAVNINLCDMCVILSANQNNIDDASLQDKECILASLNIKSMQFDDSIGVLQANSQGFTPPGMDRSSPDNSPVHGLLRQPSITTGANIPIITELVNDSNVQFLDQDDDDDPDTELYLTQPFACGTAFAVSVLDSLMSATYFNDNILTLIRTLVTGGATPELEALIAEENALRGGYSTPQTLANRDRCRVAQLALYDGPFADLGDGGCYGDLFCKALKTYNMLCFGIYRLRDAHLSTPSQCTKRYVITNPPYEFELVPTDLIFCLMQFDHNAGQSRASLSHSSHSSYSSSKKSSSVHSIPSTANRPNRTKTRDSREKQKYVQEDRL", "test": "single channel current recording by patch clamp (inside-out excised patch, back-fill)", "type": "cell-based, chicken", "conditions": "for inhibition of wild-type SA channel: wild-type myocardial SA channel, FIG. 13; for inhibiting activity: primary screening, channel's open probability (Po); for level of inhibiting activity compared with GsMTx-4: suggested from time taken for inhibition", "procedure": "Activity assay of the peptides was carried out by the most reliable single channel current recording method using the patch clamp method. As the subject of the assay, Ca^2+ dependant BigK channel (Kawakubo et. Am J Physiol, 276: H1827.1999) derived from heart muscle was employed. By applying this channel to the expressed ventricle muscle of chicken or to CHO cells force-expressing the cDNA of this channel with the cell-attached patch clamp method, an inside-out excised patch was formed, and single channel current recordings were taken under a fixed membrane potential. Assuming that the designed synthetic peptide blocks the channel extracellularly the same as GsMTx-4, the space a fixed distance above the glass pipette used for recording was filled with the peptide of a known concentration beforehand, and administration was carried out by back-fill which utilizes diffusion to reach the channel, With this method, the concentration of the peptide inside the pipette reaches equilibrium 15 to 20 minutes after the start of diffusion, and so the dissociation constant of the peptide can be estimated from the inhibition ratio at 20 minutes and onwards. Or, the relative inhibition of the peptide can be estimated from the time taken for inhibition. If the exact dissociation constant of the peptide is to be calculated, it is necessary to prepare an outside-out excised patch, take single channel current recordings, analyze the inhibition effects of various peptides with different concentration, and obtain a dose-inhibition curve; however, as this method requires special technology and as this is the primary screening of the various designed synthetic peptides, the assay method combining the inside-out excised patch and back-fill described above was used to make a rough estimate of the inhibition effects of the peptides. […] Concerning the scale of evaluation, the channel's open probability (Po, indicated in percentage) was used, and the level of inhibition was expressed by the inhibition ratio (percentage) with the control (prior to the administration of the peptide) as the standard, or by the time taken for inhibition."}, "[2]": {"target": "T2, STREX-deletion-mutant (Gallus gallus, UniProt Q8AYS8, DEL657-715)", "T2 construct": "expressed in transfected cells; host or cells: CHO cells (inferred: a deletion mutant must be expressed heterologously, and CHO is the only expression host named for this channel)", "T2 sequence (Q8AYS8 with tags, fused parts or gaps isoform Q8AYS8-3 DEL657-715)": "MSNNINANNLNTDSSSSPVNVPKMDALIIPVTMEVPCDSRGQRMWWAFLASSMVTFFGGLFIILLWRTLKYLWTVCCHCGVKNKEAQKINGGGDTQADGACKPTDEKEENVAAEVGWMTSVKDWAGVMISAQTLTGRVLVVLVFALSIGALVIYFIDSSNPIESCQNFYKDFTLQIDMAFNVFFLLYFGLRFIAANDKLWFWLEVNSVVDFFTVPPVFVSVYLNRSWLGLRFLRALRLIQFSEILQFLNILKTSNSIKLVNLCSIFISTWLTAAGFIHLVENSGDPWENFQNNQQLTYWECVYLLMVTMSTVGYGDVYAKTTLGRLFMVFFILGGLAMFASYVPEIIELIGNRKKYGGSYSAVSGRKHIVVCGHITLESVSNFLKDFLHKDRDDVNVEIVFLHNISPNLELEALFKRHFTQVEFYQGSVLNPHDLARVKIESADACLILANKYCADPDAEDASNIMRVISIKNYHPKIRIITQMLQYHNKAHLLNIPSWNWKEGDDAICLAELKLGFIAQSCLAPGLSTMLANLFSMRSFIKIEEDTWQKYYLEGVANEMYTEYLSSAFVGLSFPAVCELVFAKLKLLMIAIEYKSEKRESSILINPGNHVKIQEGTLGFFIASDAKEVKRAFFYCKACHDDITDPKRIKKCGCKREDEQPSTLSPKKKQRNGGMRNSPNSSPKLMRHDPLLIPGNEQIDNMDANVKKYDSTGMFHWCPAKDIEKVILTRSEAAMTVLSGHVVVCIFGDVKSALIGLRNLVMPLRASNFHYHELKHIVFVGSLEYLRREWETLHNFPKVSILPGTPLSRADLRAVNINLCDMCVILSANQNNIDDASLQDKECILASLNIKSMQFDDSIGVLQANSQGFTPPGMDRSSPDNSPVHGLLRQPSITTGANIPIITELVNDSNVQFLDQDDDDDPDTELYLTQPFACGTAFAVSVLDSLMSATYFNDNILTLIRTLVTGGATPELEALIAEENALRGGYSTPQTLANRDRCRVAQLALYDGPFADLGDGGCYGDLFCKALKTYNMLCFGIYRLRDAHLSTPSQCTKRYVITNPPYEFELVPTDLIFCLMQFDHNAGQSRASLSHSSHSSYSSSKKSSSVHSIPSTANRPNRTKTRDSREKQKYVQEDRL", "test": "single channel current recording, specificity to mechano-sensitive channel", "type": "cell-based", "conditions": "mutant lacking the 59 amino acid STREX sequence, FIG. 13", "procedure": "Activity assay of the peptides was carried out by the most reliable single channel current recording method using the patch clamp method. As the subject of the assay, Ca^2+ dependant BigK channel (Kawakubo et. Am J Physiol, 276: H1827.1999) derived from heart muscle was employed. By applying this channel to the expressed ventricle muscle of chicken or to CHO cells force-expressing the cDNA of this channel with the cell-attached patch clamp method, an inside-out excised patch was formed, and single channel current recordings were taken under a fixed membrane potential. […] If the exact dissociation constant of the peptide is to be calculated, it is necessary to prepare an outside-out excised patch, take single channel current recordings, analyze the inhibition effects of various peptides with different concentration, and obtain a dose-inhibition curve; however, as this method requires special technology and as this is the primary screening of the various designed synthetic peptides, the assay method combining the inside-out excised patch and back-fill described above was used to make a rough estimate of the inhibition effects of the peptides. […]"}}, "note": "Where no end group is shown, it is not given here.", "data": [{"substance": "GsMTx-4 (GCLEFWWKCNPNDDKCCRPKLKCSKLFKLCNFSSG; disulfide (positions not given here); ends not checked; listed as Grammostola spatulata) [reference compound]", "values": [{"measurement": "inhibition of wild-type SA channel", "setting": "[1]", "value": "inhibit the wild-type SA channel"}, {"measurement": "inhibition of STREX-deletion-mutant", "setting": "[2]", "value": "do not inhibit the STREX-deletion-mutant hardly at all"}]}, {"substance": "TVP004: designed peptide from GsMTx-4 comprising loop 3 (CARPKLKC)", "values": [{"measurement": "inhibition (channel's open probability Po vs control)", "setting": "[1]; 10 μM, after 16 minutes", "value": 95, "unit": "%"}, {"measurement": "inhibition (channel's open probability Po vs control)", "setting": "[1]; after 8 minutes", "value": "about 60%"}, {"measurement": "inhibiting activity", "setting": "[1]", "value": "displayed inhibiting activity"}]}, {"substance": "TVP005: designed peptide from GsMTx-4 comprising loops 2 and 3 (WKCNPNDDKAARPKLKC)", "values": [{"measurement": "inhibition (channel's open probability Po vs control)", "setting": "[1]; after 20 minutes", "value": "about 60%"}, {"measurement": "inhibiting activity", "setting": "[1]", "value": "displayed inhibiting activity"}]}, {"substance": "TVP017: mutation in which the 3rd R from the N-terminus of TVP004 had been substituted by A (CAAPKLKC)", "values": [{"measurement": "inhibition (channel's open probability Po vs control)", "setting": "[1]; after 6 minutes", "value": 100, "unit": "%"}, {"measurement": "inhibiting activity", "setting": "[1]", "value": "found to show inhibiting activity"}, {"measurement": "level of inhibiting activity compared with GsMTx-4", "setting": "[1]", "value": "higher level than"}, {"measurement": "level of inhibition compared with TVP003", "setting": "[1]; time taken for inhibition", "value": "even higher level of inhibition than TVP003"}]}, {"substance": "TVP019: mutation in which the 7th K from the N-terminus of TVP004 had been substituted by A (CARPKLAC)", "values": [{"measurement": "inhibition (channel's open probability Po vs control)", "setting": "[1]; after 14 minutes", "value": "approximately 80%"}, {"measurement": "inhibiting activity", "setting": "[1]", "value": "found to show inhibiting activity"}]}, {"substance": "WKCNPNDDKC [TVP003]", "values": [{"measurement": "inhibition (channel's open probability Po vs control)", "setting": "[1]; after 8 minutes", "value": 100, "unit": "%"}, {"measurement": "dissociation constant", "setting": "[1]; estimated from inhibition ratio", "value": "μM order or lower"}, {"measurement": "inhibiting activity", "setting": "[1]", "value": "displayed inhibiting activity"}, {"measurement": "level of inhibiting activity compared with GsMTx-4", "setting": "[1]", "value": "the same as or higher than"}, {"measurement": "inhibition of wild-type SA channel", "setting": "[1]", "value": "inhibit the wild-type SA channel"}, {"measurement": "inhibition of STREX-deletion-mutant", "setting": "[2]", "value": "do not inhibit the STREX-deletion-mutant hardly at all"}]}]}
